# Measured values published in IntAct's records for PubMed 19494831.
# B1: Polycomb protein Sfmbt (Drosophila melanogaster (Fruit fly)), Q9VK33 (parent)
# chain: MNPSELRMMWMSSQYNSERITLEDAATLLGHPTVGLSVMEDLSAHQPTLDMNPMMSLMGGDFTGQAAATAAALGVQPGTLIATNSNNLYGFAHMGGLQQQLLQQSAAAAVFQNYAEAMDNDVENGMVGMAMEAVVDDDDQVYGQRDNNFDDNGSELEPKQEIINIDDFVMMNEDNNSYDGTDFMTSSDKDISQSSSSCMAQMPGSLGVPGVEHDLLVPLPDGLLHHKLLGTTLVPAMGTLNGNAFGNIMVSTENTSSKQMQRTYSTAKGANSTATTATCSASTSSALRSQRKTRKIEPVNRPGLVLKTPIAYRGNIDPSVIPIQKDGMAVCKRCGAIGVKHTFYTKSRRFCSMACARGELYSLVLNTKMEGDQATTSSPDPGAGSESADLPGDQQQSQSDIELDLHAAHIKNANYRFRITDQSKITQLNSFGEPMSMGGDAAANNVQMAADETIAALNGGAVGDATAPGSTEEGASTPNSYLSAAPTPKALRLFKDIYPQDDLPQIPKYERLPVPCPQMEKIISIRRRMYDPTHSYDWLPRLSKENFNAAPVTCFPHAPGCEVWDNLGVGMKVEVENTDCDSIEVIQPGQTPTSFWVATILEIKGYKALMSYEGFDTDSHDFWVNLCNAEVHSVGWCATRGKPLIPPRTIEHKYKDWKDFLVGRLSGARTLPSNFYNKINDSLQSRFRLGLNLECVDKDRISQVRLATVTKIVGKRLFLRYFDSDDGFWCHEDSPIIHPVGWATTVGHNLAAPQDYLERMLAGREAMIEVHEDDATIELFKMNFTFDEYYSDGKTNSFVEGMKLEAVDPLNLSSICPATVMAVLKFGYMMIRIDSYQPDASGSDWFCYHEKSPCIFPAGFCSVNNISVTPPNGYDSRTFTWEGYLRDTGAVAAGQHLFHRIIPDHGFEVGMSLECADLMDPRLVCVATVARVVGRLLKVHFDGWTDEYDQWLDCESADIYPVGWCVLVNHKLEGPPRVAHQQAPKPAPKPKIQRKRKPKKGAAGGKTPTDNNTQSVKSRTIALKTTPHLPKLSIKLELKPEHHNAAFYENNQPEEEGDEEDPDADGDGDGSTSHISEQSTTQSSSDLIAGSGSGSGSASLVTLATGSNKTNSSATNNKYIPRLADIDSSEPHLELVPDTWNVYDVSQFLRVNDCTAHCDTFSRNKIDGKRLLQLTKDDIMPLLGMKVGPALKISDLIAQLKCKVNPGRARSHKTNKSPFL
# Variants of: B1
# Conditions: with h4_human H4C16, P62805
row,Variant,effect of a mutation on the interaction
1,D697A,decreasing interaction

# Variants of: B1
# Conditions: with h33_human H3-3A
row,Variant,effect of a mutation on the interaction
1,D697A,increasing interaction

# Variants of: B1
# Conditions: with h4_human H4C16, P62805
# Remark: another data set of the same source
row,Variant,effect of a mutation on the interaction
1,E947A,decreasing interaction
2,Y948F,decreasing interaction

# Variants of: B1
# Conditions: with h4_human H4C16, P62805
# Remark: another data set of the same source
row,Variant,effect of a mutation on the interaction
1,E947A,disrupting interaction
2,Y948F,disrupting interaction

# Variants of: B1
# Conditions: with h4_human H4C16, P62805
# Remark: another data set of the same source
row,Variant,effect of a mutation on the interaction
1,D917A,disrupting interaction

# Variants of: B1
# Conditions: with h33_human H3-3A
# Remark: another data set of the same source
row,Variant,effect of a mutation on the interaction
1,D917A,disrupting interaction

# Variants of: B1
# Conditions: with h33_human H3-3A
# Remark: another data set of the same source
row,Variant,effect of a mutation on the interaction
1,D808A,decreasing interaction

# Variants of: B1
# Conditions: with h4_human H4C16, P62805
# Remark: another data set of the same source
row,Variant,effect of a mutation on the interaction
1,D808A,decreasing interaction
